T1: PUF4 RNA-binding domain (Saccharomyces cerevisiae, UniProt P25339 537-888)
T1 sequence: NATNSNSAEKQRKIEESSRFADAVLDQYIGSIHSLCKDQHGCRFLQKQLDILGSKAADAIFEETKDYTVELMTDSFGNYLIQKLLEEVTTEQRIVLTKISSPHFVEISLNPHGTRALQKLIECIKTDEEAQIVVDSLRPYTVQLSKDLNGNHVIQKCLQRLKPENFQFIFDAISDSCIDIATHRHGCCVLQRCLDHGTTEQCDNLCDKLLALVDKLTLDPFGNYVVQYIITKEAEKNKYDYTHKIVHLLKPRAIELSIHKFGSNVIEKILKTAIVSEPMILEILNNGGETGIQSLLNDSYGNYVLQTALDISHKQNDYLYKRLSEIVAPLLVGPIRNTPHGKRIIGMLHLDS


Each binder was assayed against T1, PUF4 RNA-binding domain (assay: Mg; RNA-MaP; 20 mM Na-HEPES pH 7.4, 30 mM KOAc, 0.75 mM MgCl2, 0.1% Tween-20, 5% glycerol, 0.1 mg/mL BSA, 2 mM DTT; 25 C; 0.0125-409.6 nM protein). Settings: tags: N-His6-TEV cleaved; C-SNAP kept, Cy3B-labelled; label: tethered on chip by stalled RNA polymerase.

Binder	Kd [nM]
UCUCUUUGUAAACAUUCUCUU (ssRNA) [Ic_S1_P4E.1_K4.1_C4.1_H4.1_A4.1_[T5A]_[T7C]_F4.1_[T8A]_[A9T]_T4.1]	165
UCUCUUUGUAAACACUCUCUU (ssRNA) [Ic_S1_P4E.1_K4.1_C4.1_H4.1_A4.1_[T5A]_[T7C]_F4.1_[T8A]_[A9C]_T4.1]	565
UCUCUUUGUAUGCUCUCUCUU (ssRNA) [Ic_S1_P4E.1_K4.1_C4.1_H4.1_A4.1_[A6G]_[T7C]_F4.1_[A9C]_T4.1]	677
UCUCUUUGUAAAAUGUCUCUU (ssRNA) [Ic_S1_P4E.1_K4.1_C4.1_H4.1_A4.1_[T5A]_[T7A]_F4.1_[A9G]_T4.1]	27.1
UCUCUUUGUAUCGCUUCUCUU (ssRNA) [Ic_S1_P4E.1_K4.1_C4.1_H4.1_A4.1_[A6C]_[T7G]_F4.1_[T8C]_[A9T]_T4.1]	682
UCUCUUUGUAAAAUUUCUCUU (ssRNA) [Ic_S1_P4E.1_K4.1_C4.1_H4.1_A4.1_[T5A]_[T7A]_F4.1_[A9T]_T4.1]	33.5
UCUCUUUGUAUGCGUUCUCUU (ssRNA) [Ic_S1_P4E.1_K4.1_C4.1_H4.1_A4.1_[A6G]_[T7C]_F4.1_[T8G]_[A9T]_T4.1]	1210
UCUCUUUGUAUGCAUUCUCUU (ssRNA) [Ic_S1_P4E.1_K4.1_C4.1_H4.1_A4.1_[A6G]_[T7C]_F4.1_[T8A]_[A9T]_T4.1]	565
UCUCUUUGUAUGGCUUCUCUU (ssRNA) [Ic_S1_P4E.1_K4.1_C4.1_H4.1_A4.1_[A6G]_[T7G]_F4.1_[T8C]_[A9T]_T4.1]	1630
UCUCUUUGUAUGACUUCUCUU (ssRNA) [Ic_S1_P4E.1_K4.1_C4.1_H4.1_A4.1_[A6G]_[T7A]_F4.1_[T8C]_[A9T]_T4.1]	804
UCUCUUUGUAUGGCGUCUCUU (ssRNA) [Ic_S1_P4E.1_K4.1_C4.1_H4.1_A4.1_[A6G]_[T7G]_F4.1_[T8C]_[A9G]_T4.1]	> 2300
UCUCUUUGUAAACAAUCUCUU (ssRNA) [Ic_S1_P4E.1_K4.1_C4.1_H4.1_A4.1_[T5A]_[T7C]_F4.1_[T8A]_T4.1]	57.4
UCUCUUUGUAAAGCCUCUCUU (ssRNA) [Ic_S1_P4E.1_K4.1_C4.1_H4.1_A4.1_[T5A]_[T7G]_F4.1_[T8C]_[A9C]_T4.1]	1020
UCUCUUUGUAUGGUCUCUCUU (ssRNA) [Ic_S1_P4E.1_K4.1_C4.1_H4.1_A4.1_[A6G]_[T7G]_F4.1_[A9C]_T4.1]	1260
UCUCUUUGUAUCGGCUCUCUU (ssRNA) [Ic_S1_P4E.1_K4.1_C4.1_H4.1_A4.1_[A6C]_[T7G]_F4.1_[T8G]_[A9C]_T4.1]	2020
UCUCUUUGUAUGGCCUCUCUU (ssRNA) [Ic_S1_P4E.1_K4.1_C4.1_H4.1_A4.1_[A6G]_[T7G]_F4.1_[T8C]_[A9C]_T4.1]	> 2300
UCUCUUUGUAAAAACUCUCUU (ssRNA) [Ic_S1_P4E.1_K4.1_C4.1_H4.1_A4.1_[T5A]_[T7A]_F4.1_[T8A]_[A9C]_T4.1]	526
UCUCUUUGUAAACGCUCUCUU (ssRNA) [Ic_S1_P4E.1_K4.1_C4.1_H4.1_A4.1_[T5A]_[T7C]_F4.1_[T8G]_[A9C]_T4.1]	833
UCUCUUUGUAAACAUCUCUU (ssRNA) [Ib_S1_P3E.1_K3.1_C3.1_H3.1_A3.1_[T5A]_F3.1_[T7C]_T3.1]	424
UCUCUUUGUAAACAGUCUCUU (ssRNA) [Ic_S1_P4E.1_K4.1_C4.1_H4.1_A4.1_[T5A]_[T7C]_F4.1_[T8A]_[A9G]_T4.1]	508
UCUCUUUGUAUGUCCUCUCUU (ssRNA) [Ic_S1_P4E.1_K4.1_C4.1_H4.1_A4.1_[A6G]_F4.1_[T8C]_[A9C]_T4.1]	564
UCUCUUUGUACAAAUCUCUU (ssRNA) [Ic_S1_P3E.1_K3.1_C3.1_H3.1_A3.1_[T5C]_F3.1_[T7A]_T3.1]	100

Binder	Kd [nM]
UCUCUUUGUAAAUACUCUCUU (ssRNA) [Ic_S1_P4E.1_K4.1_C4.1_H4.1_A4.1_[T5A]_F4.1_[T8A]_[A9C]_T4.1]	36.7
UCUCUUUGUAAUUUCUCUCUU (ssRNA) [Ic_S1_P4E.1_K4.1_C4.1_H4.1_A4.1_[T5A]_[A6T]_F4.1_[A9C]_T4.1]	83.9
UCUCUUUGUAUGCUGUCUCUU (ssRNA) [Ic_S1_P4E.1_K4.1_C4.1_H4.1_A4.1_[A6G]_[T7C]_F4.1_[A9G]_T4.1]	685
UCUCUUUGUAAAGCGUCUCUU (ssRNA) [Ic_S1_P4E.1_K4.1_C4.1_H4.1_A4.1_[T5A]_[T7G]_F4.1_[T8C]_[A9G]_T4.1]	2010
UCUCUUUGUAAACUGUCUCUU (ssRNA) [Ic_S1_P4E.1_K4.1_C4.1_H4.1_A4.1_[T5A]_[T7C]_F4.1_[A9G]_T4.1]	17.2
UCUCUUUGUAAAGCUUCUCUU (ssRNA) [Ic_S1_P4E.1_K4.1_C4.1_H4.1_A4.1_[T5A]_[T7G]_F4.1_[T8C]_[A9T]_T4.1]	658
UCUCUUUGUACACAUCUCUU (ssRNA) [Ic_S1_P3E.1_K3.1_C3.1_H3.1_A3.1_[T5C]_F3.1_[T7C]_T3.1]	46.1
UCUCUUUGUAAACCCUCUCUU (ssRNA) [Ic_S1_P4E.1_K4.1_C4.1_H4.1_A4.1_[T5A]_[T7C]_F4.1_[T8C]_[A9C]_T4.1]	1020
UCUCUUUGUAAAUGCUCUCUU (ssRNA) [Ic_S1_P4E.1_K4.1_C4.1_H4.1_A4.1_[T5A]_F4.1_[T8G]_[A9C]_T4.1]	377
UCUCUUUGUAAAAAUUCUCUU (ssRNA) [Ic_S1_P4E.1_K4.1_C4.1_H4.1_A4.1_[T5A]_[T7A]_F4.1_[T8A]_[A9T]_T4.1]	373
UCUCUUUGUAAAACUUCUCUU (ssRNA) [Ic_S1_P4E.1_K4.1_C4.1_H4.1_A4.1_[T5A]_[T7A]_F4.1_[T8C]_[A9T]_T4.1]	106
UCUCUUUGUAAAUAUUCUCUU (ssRNA) [Ic_S1_P4E.1_K4.1_C4.1_H4.1_A4.1_[T5A]_F4.1_[T8A]_[A9T]_T4.1]	26.2
UCUCUUUGUAAAACAUCUCUU (ssRNA) [Ic_S1_P4E.1_K4.1_C4.1_H4.1_A4.1_[T5A]_[T7A]_F4.1_[T8C]_T4.1]	41.1
UCUCUUUGUAUGUGGUCUCUU (ssRNA) [Ic_S1_P4E.1_K4.1_C4.1_H4.1_A4.1_[A6G]_F4.1_[T8G]_[A9G]_T4.1]	1000
UCUCUUUGUAAAGCAUCUCUU (ssRNA) [Ic_S1_P4E.1_K4.1_C4.1_H4.1_A4.1_[T5A]_[T7G]_F4.1_[T8C]_T4.1]	387
UCUCUUUGUAUGCCAUCUCUU (ssRNA) [Ic_S1_P4E.1_K4.1_C4.1_H4.1_A4.1_[A6G]_[T7C]_F4.1_[T8C]_T4.1]	472
UCUCUUUGUAAUUUGUCUCUU (ssRNA) [Ic_S1_P4E.1_K4.1_C4.1_H4.1_A4.1_[T5A]_[A6T]_F4.1_[A9G]_T4.1]	28.5
UCUCUUUGUAAAAAUCUCUU (ssRNA) [Ic_S1_P3E.1_K3.1_C3.1_H3.1_A3.1_[T5A]_F3.1_[T7A]_T3.1]	367
UCUCUUUGUAUGCGCUCUCUU (ssRNA) [Ic_S1_P4E.1_K4.1_C4.1_H4.1_A4.1_[A6G]_[T7C]_F4.1_[T8G]_[A9C]_T4.1]	> 2300
UCUCUUUGUAAUUUUUCUCUU (ssRNA) [Ic_S1_P4E.1_K4.1_C4.1_H4.1_A4.1_[T5A]_[A6T]_F4.1_[A9T]_T4.1]	34.7
UCUCUUUGUAUGUAGUCUCUU (ssRNA) [Ic_S1_P4E.1_K4.1_C4.1_H4.1_A4.1_[A6G]_F4.1_[T8A]_[A9G]_T4.1]	106
UCUCUUUGUAAACUUUCUCUU (ssRNA) [Ic_S1_P4E.1_K4.1_C4.1_H4.1_A4.1_[T5A]_[T7C]_F4.1_[A9T]_T4.1]	24.7

Binder	Kd [nM]
UCUCUUUGUAUGUACUCUCUU (ssRNA) [Ic_S1_P4E.1_K4.1_C4.1_H4.1_A4.1_[A6G]_F4.1_[T8A]_[A9C]_T4.1]	41.5
UCUCUUUGUAAAGUCUCUCUU (ssRNA) [Ic_S1_P4E.1_K4.1_C4.1_H4.1_A4.1_[T5A]_[T7G]_F4.1_[A9C]_T4.1]	406
UCUCUUUGUAAACCGUCUCUU (ssRNA) [Ic_S1_P4E.1_K4.1_C4.1_H4.1_A4.1_[T5A]_[T7C]_F4.1_[T8C]_[A9G]_T4.1]	951
UCUCUUUGUAAAAGCUCUCUU (ssRNA) [Ic_S1_P4E.1_K4.1_C4.1_H4.1_A4.1_[T5A]_[T7A]_F4.1_[T8G]_[A9C]_T4.1]	2280
UCUCUUUGUAUGAUCUCUCUU (ssRNA) [Ic_S1_P4E.1_K4.1_C4.1_H4.1_A4.1_[A6G]_[T7A]_F4.1_[A9C]_T4.1]	148
UCUCUUUGUAUGCAAUCUCUU (ssRNA) [Ic_S1_P4E.1_K4.1_C4.1_H4.1_A4.1_[A6G]_[T7C]_F4.1_[T8A]_T4.1]	516
UCUCUUUGUAUGCAGUCUCUU (ssRNA) [Ic_S1_P4E.1_K4.1_C4.1_H4.1_A4.1_[A6G]_[T7C]_F4.1_[T8A]_[A9G]_T4.1]	> 2300
UCUCUUUGUAAAUCCUCUCUU (ssRNA) [Ic_S1_P4E.1_K4.1_C4.1_H4.1_A4.1_[T5A]_F4.1_[T8C]_[A9C]_T4.1]	368
UCUCUUUGUAUCGAUCUCUU (ssRNA) [Ib_S1_P3E.1_K3.1_C3.1_H3.1_A3.1_[A6C]_F3.1_[T7G]_T3.1]	1020
UCUCUUUGUAUCGGUUCUCUU (ssRNA) [Ic_S1_P4E.1_K4.1_C4.1_H4.1_A4.1_[A6C]_[T7G]_F4.1_[T8G]_[A9T]_T4.1]	938
UCUCUUUGUAUGCUUUCUCUU (ssRNA) [Ic_S1_P4E.1_K4.1_C4.1_H4.1_A4.1_[A6G]_[T7C]_F4.1_[A9T]_T4.1]	96.1
UCUCUUUGUAUGAUGUCUCUU (ssRNA) [Ic_S1_P4E.1_K4.1_C4.1_H4.1_A4.1_[A6G]_[T7A]_F4.1_[A9G]_T4.1]	56.7
UCUCUUUGUAAUUAAUCUCUU (ssRNA) [Ic_S1_P4E.1_K4.1_C4.1_H4.1_A4.1_[T5A]_[A6T]_F4.1_[T8A]_T4.1]	216
UCUCUUUGUAUGUGUUCUCUU (ssRNA) [Ic_S1_P4E.1_K4.1_C4.1_H4.1_A4.1_[A6G]_F4.1_[T8G]_[A9T]_T4.1]	92.5
UCUCUUUGUAUGUAUUCUCUU (ssRNA) [Ic_S1_P4E.1_K4.1_C4.1_H4.1_A4.1_[A6G]_F4.1_[T8A]_[A9T]_T4.1]	71.2
UCUCUUUGUAAAUAGUCUCUU (ssRNA) [Ic_S1_P4E.1_K4.1_C4.1_H4.1_A4.1_[T5A]_F4.1_[T8A]_[A9G]_T4.1]	11.5
UCUCUUUGUAAACUCUCUCUU (ssRNA) [Ic_S1_P4E.1_K4.1_C4.1_H4.1_A4.1_[T5A]_[T7C]_F4.1_[A9C]_T4.1]	33.8
UCUCUUUGUAUGGUUUCUCUU (ssRNA) [Ic_S1_P4E.1_K4.1_C4.1_H4.1_A4.1_[A6G]_[T7G]_F4.1_[A9T]_T4.1]	542
UCUCUUUGUAAAACCUCUCUU (ssRNA) [Ic_S1_P4E.1_K4.1_C4.1_H4.1_A4.1_[T5A]_[T7A]_F4.1_[T8C]_[A9C]_T4.1]	523
UCUCUUUGUAAAAUCUCUCUU (ssRNA) [Ic_S1_P4E.1_K4.1_C4.1_H4.1_A4.1_[T5A]_[T7A]_F4.1_[A9C]_T4.1]	54.4
UCUCUUUGUUUAUUUCUCUU (ssRNA) [Ib_S1_P3E.1_K3.1_C3.1_H3.1_[A4T]_A3.1_F3.1_[A8T]_T3.1]	426

— article PMC9352680, “A comprehensive thermodynamic model for RNA binding by the Saccharomyces cerevisiae Pumilio protein PUF4”
